Measured values from US20240392262A1, “TRANSPOSASE AND USES THEREOF” (Poseida Therapeutics, Inc., published 2024).
Positions count from the first letter of the chain named.

Tests used:
GFP1 Right NT-G TAL-PBx = biological target: T1, GFP1 Right NT-G TAL-PBx (synthetic construct); assay: cell_activity; settings: tags: 3xFlag, SV40 NLS; chain copies: 2
T1 chain: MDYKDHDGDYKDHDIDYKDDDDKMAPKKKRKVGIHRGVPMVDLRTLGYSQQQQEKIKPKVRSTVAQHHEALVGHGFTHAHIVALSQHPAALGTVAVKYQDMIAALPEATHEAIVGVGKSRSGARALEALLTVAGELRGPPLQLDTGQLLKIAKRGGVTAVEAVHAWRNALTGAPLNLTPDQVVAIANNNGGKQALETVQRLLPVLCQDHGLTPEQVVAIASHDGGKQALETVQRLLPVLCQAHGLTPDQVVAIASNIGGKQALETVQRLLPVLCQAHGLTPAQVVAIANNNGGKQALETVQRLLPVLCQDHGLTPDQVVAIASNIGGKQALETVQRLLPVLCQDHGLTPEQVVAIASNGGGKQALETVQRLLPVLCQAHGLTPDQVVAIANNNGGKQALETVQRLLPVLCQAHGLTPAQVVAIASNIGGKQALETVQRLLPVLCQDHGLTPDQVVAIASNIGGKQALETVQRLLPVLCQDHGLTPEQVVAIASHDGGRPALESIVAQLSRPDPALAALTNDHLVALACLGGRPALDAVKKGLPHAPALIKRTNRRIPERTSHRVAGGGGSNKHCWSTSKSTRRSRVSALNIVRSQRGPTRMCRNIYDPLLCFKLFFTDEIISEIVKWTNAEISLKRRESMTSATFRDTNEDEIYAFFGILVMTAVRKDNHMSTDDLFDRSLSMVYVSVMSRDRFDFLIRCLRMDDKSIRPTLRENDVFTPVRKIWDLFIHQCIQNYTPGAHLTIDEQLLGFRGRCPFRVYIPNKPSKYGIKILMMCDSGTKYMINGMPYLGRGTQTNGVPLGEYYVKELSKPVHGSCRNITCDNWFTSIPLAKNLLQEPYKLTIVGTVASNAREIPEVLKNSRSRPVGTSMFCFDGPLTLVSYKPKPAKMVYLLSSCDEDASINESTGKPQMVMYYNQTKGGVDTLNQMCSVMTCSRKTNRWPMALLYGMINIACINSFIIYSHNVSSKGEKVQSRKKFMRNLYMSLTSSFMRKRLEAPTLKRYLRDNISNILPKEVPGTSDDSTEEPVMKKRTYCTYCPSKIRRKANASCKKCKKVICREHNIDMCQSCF

[1] = biological target: T2, GFP1 Right NT-betaN TAL-PBx (synthetic construct); assay: cell_activity; settings: tags: 3xFlag, SV40 NLS; chain copies: 2
T2 chain: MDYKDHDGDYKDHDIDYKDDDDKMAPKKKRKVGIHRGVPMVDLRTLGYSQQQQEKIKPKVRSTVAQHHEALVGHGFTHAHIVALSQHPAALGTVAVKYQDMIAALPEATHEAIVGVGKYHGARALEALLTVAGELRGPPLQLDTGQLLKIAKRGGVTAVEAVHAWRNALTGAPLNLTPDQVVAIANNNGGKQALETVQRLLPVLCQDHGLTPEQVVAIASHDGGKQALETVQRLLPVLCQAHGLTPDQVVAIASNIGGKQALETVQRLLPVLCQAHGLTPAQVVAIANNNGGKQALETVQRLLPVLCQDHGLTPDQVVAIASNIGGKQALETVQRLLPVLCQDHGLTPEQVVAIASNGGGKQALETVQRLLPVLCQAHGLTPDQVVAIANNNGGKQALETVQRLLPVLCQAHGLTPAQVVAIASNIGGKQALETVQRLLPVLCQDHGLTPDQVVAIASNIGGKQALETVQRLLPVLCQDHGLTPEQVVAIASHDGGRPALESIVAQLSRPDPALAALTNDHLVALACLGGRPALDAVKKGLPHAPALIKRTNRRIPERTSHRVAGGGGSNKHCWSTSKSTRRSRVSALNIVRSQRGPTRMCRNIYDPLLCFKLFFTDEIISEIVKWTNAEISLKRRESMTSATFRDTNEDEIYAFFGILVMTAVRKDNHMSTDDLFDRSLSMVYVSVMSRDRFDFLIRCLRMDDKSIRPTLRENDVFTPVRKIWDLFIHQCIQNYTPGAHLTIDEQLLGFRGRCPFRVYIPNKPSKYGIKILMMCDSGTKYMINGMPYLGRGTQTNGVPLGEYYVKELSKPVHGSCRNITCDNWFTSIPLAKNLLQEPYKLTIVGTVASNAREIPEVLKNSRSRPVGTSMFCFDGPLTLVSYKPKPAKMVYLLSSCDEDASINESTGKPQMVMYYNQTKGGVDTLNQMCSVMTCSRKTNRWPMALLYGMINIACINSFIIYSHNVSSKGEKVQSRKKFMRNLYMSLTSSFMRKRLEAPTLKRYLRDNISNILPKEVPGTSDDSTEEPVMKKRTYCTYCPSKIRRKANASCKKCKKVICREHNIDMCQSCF

[2] = biological target: T3, GFP1 Right TALEN NT-betaN (synthetic construct); assay: cell_activity; SSA; settings: tags: 3xFlag, SV40 NLS, FokI fusion; chain copies: 2
T3 chain: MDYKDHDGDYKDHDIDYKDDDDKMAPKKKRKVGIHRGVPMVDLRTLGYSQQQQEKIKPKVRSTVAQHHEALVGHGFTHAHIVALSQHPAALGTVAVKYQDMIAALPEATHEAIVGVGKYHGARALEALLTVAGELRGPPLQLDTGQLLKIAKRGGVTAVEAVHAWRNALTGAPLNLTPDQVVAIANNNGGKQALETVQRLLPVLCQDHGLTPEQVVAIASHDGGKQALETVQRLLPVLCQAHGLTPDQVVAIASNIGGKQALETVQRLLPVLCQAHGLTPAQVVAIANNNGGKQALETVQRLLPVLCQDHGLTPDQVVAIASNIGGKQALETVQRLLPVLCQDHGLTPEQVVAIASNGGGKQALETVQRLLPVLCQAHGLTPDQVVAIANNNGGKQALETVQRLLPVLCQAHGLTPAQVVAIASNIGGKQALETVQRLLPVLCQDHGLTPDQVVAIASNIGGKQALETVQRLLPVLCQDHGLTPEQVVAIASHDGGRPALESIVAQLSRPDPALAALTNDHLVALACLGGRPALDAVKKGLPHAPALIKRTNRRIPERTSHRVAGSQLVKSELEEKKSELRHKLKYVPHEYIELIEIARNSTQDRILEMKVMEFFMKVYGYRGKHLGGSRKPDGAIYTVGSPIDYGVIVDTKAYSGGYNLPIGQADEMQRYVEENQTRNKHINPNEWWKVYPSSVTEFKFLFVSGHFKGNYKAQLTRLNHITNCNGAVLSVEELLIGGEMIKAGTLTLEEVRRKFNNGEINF
Description: (§1) The TALEN NT-G and NT-ON designs were tested using the single strand annealing reporter (Example 17). The target site corresponding to the GFP1 Right TALEN (SEQ ID NO: 288) was modified to replace T 5′ of the target sites with either an A, a C, or a G to create SEQ ID NOs: 403-405). A transfection mixture containing 90 ng of each TALEN, 10 ng of the corresponding reporter and 1.5p of Transit-2020 transfection reagent in a total volume of 20 μl of Serum Free OptiMem medium were assembled. A TALEN or a reporter were transfected alone as negative controls. An aliquot of 30,000 HEK293T cells in 180 μl of DMEM medium supplemented with 10% FBS was added and the transfection mixture was plated in 96 well plates and incubated for one day at 37° C. at 5% CO2. The following day, a lysis buffer was added to the cells and the lysate was transferred to a white 96 well plate. A buffer containing substrate for Firefly luciferase was mixed with the cells and luciferase luminescence was detected using a plate reader.

GFP1 Right TALEN NT-G = biological target: T4, GFP1 Right TALEN NT-G (synthetic construct); assay: cell_activity; SSA; settings: tags: 3xFlag, SV40 NLS, FokI fusion; chain copies: 2
T4 chain: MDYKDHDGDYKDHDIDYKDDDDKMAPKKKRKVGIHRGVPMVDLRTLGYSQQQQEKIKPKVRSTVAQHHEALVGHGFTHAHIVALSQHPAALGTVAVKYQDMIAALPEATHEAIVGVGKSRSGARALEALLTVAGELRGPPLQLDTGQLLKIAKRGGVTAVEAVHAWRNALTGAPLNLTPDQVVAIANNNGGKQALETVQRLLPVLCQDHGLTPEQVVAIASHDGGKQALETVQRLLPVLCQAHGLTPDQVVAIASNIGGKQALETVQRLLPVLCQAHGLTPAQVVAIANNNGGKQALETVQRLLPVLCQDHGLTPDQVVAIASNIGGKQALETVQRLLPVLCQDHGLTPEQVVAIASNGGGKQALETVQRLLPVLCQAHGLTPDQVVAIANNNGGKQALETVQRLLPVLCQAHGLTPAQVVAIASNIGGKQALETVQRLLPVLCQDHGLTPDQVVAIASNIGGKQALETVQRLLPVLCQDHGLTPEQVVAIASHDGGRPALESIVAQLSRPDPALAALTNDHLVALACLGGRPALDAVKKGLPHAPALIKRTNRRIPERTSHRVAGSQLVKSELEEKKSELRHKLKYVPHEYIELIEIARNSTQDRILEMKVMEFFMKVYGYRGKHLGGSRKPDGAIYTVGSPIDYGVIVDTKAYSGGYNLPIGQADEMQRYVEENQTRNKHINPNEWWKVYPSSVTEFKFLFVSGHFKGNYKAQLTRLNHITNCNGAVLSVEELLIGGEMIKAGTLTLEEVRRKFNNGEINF
Description: as §1

GFP1 Right TALEN = biological target: T5, GFP1 Right TALEN (synthetic construct); assay: cell_activity; SSA; settings: tags: 3xFlag, SV40 NLS, FokI fusion; chain copies: 2
T5 chain: T4 chain with S119Q, R120W
Description: as §1

B1: GFP1R 13 bp 5'G (dsDNA)
DNA 1: GGCAGATGAACGCAATCTCACGGCTTAACTACTGACCTGAAGTTCATCTGCC
DNA 2: GGCAGATGAACTTCAGGTCAGTAGTTAAGCCGTGAGATTGCGTTCATCTGCC
activity (GFP1 Right NT-G TAL-PBx): 20.4 % GFP+ | activity [1]: 20.4 % GFP+

B2: GFP1 R SSA site 5'C (dsDNA)
DNA 1: GGCGCAGATGAACGCAAGCTGACCCTGAAGTTCATCTGCGTT
DNA 2: AACGCAGATGAACTTCAGGGTCAGCTTGCGTTCATCTGCGCC
activity [2]: 1.12e+06 RLU | activity (GFP1 Right TALEN NT-G): 693000 RLU | activity (GFP1 Right TALEN): 419000 RLU

B3: GFP1 R SSA site 5'A (dsDNA)
DNA 1: B2 DNA 1 with C3A, G40T
DNA 2: B2 DNA 2 with C3A, G40T
activity [2]: 1.56e+06 RLU | activity (GFP1 Right TALEN NT-G): 1.14e+06 RLU

B4: GFP1 R SSA site 5'G (dsDNA)
DNA 1: B2 DNA 1 with C3G, G40C
DNA 2: B2 DNA 2 with C3G, G40C
activity [2]: 1.21e+06 RLU | activity (GFP1 Right TALEN NT-G): 1.07e+06 RLU | activity (GFP1 Right TALEN): 294000 RLU

B5: GFP1 R+R SSA site (dsDNA)
DNA 1: B2 DNA 1 with C3T, G40A
DNA 2: B2 DNA 2 with C3T, G40A
activity [2]: 1.45e+06 RLU | activity (GFP1 Right TALEN NT-G): 1.21e+06 RLU
